We go through 1 substance from patent US8709448B2, “Anti-infective agents and uses thereof” (priority 2008, dated 2014).

The data set relates to PBMC.

Take IFNα: the “effect on overall PBMC culture viability” value is “no effect”.
